Changes are numbered by the printed parent chain.
T1: CYLD USP domain I790D (human, UniProt Q9NQC7 583-956, I790D)
T1 sequence: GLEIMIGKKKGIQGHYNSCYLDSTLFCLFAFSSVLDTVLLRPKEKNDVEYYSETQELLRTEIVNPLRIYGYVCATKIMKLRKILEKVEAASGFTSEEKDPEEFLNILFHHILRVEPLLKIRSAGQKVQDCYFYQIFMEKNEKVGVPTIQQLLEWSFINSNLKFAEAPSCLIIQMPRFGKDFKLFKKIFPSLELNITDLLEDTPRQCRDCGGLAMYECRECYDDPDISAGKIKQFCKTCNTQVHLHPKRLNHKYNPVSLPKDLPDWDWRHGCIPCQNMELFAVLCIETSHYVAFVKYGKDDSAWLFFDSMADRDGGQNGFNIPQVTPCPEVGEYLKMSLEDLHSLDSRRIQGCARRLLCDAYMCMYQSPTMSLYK

T2: CYLD USP domain L622D (human, UniProt Q9NQC7 583-956, L622D)
T2 sequence: T1 sequence with L40D, D208I

B1: SPATA2 PUB domain (aa 1–241) (domain or fragment)
chain: MGKPSSMDTKFKDDLFRKYVQFHESKVDTTTSRQRPGSDECLRVAASTLLSLHKVDPFYRFRLIQFYEVVESSLRSLSSSSLRALHGAFSMLETVGINLFLYPWKKEFRSIKTYTGPFVYYVKSTLLEEDIRAILSCMGYTPELGTAYKLRELVETLQVKMVSFELFLAKVECEQMLEIHSQVKDKGYSELDIVSERKSSAEDVRGCSDALRRRAEGREHLTASMSRVALQKSASERAAKD
B2: CYLD USP domain (aa 583–956) (domain or fragment)
chain: T1 sequence with D208I

Key:
CYLD USP domain I790D [1] = biological target: T1, CYLD USP domain I790D; experiment: SPR
CYLD USP domain I790D [2] = biological target: T1, CYLD USP domain I790D; experiment: SPR; kinetic
CYLD USP domain L622D = biological target: T2, CYLD USP domain L622D; experiment: SPR; equilibrium
[3] = biological target: CYLD ΔB-box (purified USP domain without the B-box) (human, UniProt Q9NQC7 592-950); experiment: SPR; equilibrium
[4] = biological target: B1; experiment: SPR
[5] = biological target: B1; experiment: SPR; kinetic

koff (CYLD USP domain I790D [1]) | Kd (CYLD USP domain I790D [2]) | Kd (CYLD USP domain L622D) | Kd [3] | koff [4] | Kd [5] | Binder
0.086 s⁻¹ | 0.585 µM | > 60 µM | > 100 µM |  |  | B1
 |  |  |  | 0.02 s⁻¹ | 0.084 µM | B2

— paper PMC5031558 (2016)
